{
  "source": "paper PMC5131778",
  "about": "(Genes & Development, 2016)",
  "key": {"WD40 domain of Gemin5": {"biological_target": "T1, WD40 domain of Gemin5 (Homo sapiens, UniProt Q8TEQ6)", "T1 sequence (Q8TEQ6 1-739)": "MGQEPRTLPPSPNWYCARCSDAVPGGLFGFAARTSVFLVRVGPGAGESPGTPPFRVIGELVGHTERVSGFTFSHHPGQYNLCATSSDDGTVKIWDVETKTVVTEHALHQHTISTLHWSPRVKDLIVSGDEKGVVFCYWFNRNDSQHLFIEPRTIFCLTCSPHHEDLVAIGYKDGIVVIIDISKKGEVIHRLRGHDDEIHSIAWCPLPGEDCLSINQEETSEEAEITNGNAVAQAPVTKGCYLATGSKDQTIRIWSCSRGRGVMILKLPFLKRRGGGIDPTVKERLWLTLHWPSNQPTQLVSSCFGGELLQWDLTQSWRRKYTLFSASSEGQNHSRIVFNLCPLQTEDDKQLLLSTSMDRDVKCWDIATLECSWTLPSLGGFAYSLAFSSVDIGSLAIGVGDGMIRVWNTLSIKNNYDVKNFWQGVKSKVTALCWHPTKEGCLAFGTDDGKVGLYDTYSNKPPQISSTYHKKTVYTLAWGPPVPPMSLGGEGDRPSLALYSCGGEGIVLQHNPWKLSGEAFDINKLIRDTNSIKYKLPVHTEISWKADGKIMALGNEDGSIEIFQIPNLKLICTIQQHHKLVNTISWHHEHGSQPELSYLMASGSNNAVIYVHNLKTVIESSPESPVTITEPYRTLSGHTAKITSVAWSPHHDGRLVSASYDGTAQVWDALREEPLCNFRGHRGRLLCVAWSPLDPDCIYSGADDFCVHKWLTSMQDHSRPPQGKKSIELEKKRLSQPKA", "assay": "isothermal titration calorimetry", "type": "binding"}, "Gemin5 WD40 domain [1]": {"biological_target": "T2, Gemin5 WD40 domain (Homo sapiens, UniProt Q8TEQ6 1-739)", "assay": "ITC"}, "Gemin5 WD40 E197A": {"biological_target": "Gemin5 WD40 E197A (Homo sapiens, UniProt Q8TEQ6 1-739, E197A)", "sequence (Q8TEQ6 1-739 E197A)": "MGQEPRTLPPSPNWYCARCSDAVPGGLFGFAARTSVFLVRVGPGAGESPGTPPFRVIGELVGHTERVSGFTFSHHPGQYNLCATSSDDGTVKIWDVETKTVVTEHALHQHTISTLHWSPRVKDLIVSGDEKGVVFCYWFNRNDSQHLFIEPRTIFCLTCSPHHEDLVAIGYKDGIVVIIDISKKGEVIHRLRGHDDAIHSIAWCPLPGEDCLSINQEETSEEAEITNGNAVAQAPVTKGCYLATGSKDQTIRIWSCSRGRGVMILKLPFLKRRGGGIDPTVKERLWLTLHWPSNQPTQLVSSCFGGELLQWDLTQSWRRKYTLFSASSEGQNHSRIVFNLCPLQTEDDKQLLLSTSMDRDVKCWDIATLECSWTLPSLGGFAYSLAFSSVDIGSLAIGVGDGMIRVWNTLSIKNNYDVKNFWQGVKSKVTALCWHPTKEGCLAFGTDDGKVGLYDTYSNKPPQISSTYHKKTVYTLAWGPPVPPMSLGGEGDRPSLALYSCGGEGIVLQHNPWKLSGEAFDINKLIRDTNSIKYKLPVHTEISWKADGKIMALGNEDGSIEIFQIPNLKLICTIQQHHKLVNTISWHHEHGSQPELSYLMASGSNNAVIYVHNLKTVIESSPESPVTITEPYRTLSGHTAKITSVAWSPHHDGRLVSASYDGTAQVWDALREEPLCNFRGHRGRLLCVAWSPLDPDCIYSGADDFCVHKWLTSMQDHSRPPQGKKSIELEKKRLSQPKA", "assay": "ITC"}, "Gemin5 WD40 Y474A": {"biological_target": "Gemin5 WD40 Y474A (Homo sapiens, UniProt Q8TEQ6 1-739, Y474A)", "assay": "ITC"}, "Gemin5 WD40 domain [2]": {"biological_target": "T2, Gemin5 WD40 domain", "assay": "crystal structure"}},
  "data": [
    {"molecule": "C[n+]1cn([C@@H]2O[C@H](COP(=O)(O)OP(=O)(O)OP(=O)(O)OC[C@H]3O[C@@H](n4cnc5c(=O)[nH]c(N)nc54)[C@H](O)[C@@H]3O)[C@@H](O)[C@H]2O)c2nc(N)[nH]c(=O)c21", "note": "[m^7GpppG]", "values": [
      {"measurement": "Kd", "setting": "WD40 domain of Gemin5", "value": 4, "unit": "µM"}
    ]},
    {"molecule": "AAUUGUUG (ssRNA)", "note": "[pre-U4 (118-125) U122G]", "values": [
      {"measurement": "binding result", "setting": "Gemin5 WD40 domain [1]", "value": "no binding"}
    ]},
    {"molecule": "AACUUUUG (ssRNA)", "note": "[pre-U4 (118-125) U120C]", "values": [
      {"measurement": "binding result", "setting": "Gemin5 WD40 domain [1]", "value": "no binding"}
    ]},
    {"molecule": "AAUCUUUG (ssRNA)", "note": "[pre-U4 (118-125) U121C]", "values": [
      {"measurement": "Kd", "setting": "Gemin5 WD40 domain [1]", "value": "11 ± 2", "unit": "µM"}
    ]},
    {"molecule": "AAUUCUUG (ssRNA)", "note": "[pre-U4 (118-125) U122C]", "values": [
      {"measurement": "binding result", "setting": "Gemin5 WD40 domain [1]", "value": "no binding"}
    ]},
    {"molecule": "AAUUUUUG (ssRNA)", "note": "[pre-U4 (118-125) Sm site]", "values": [
      {"measurement": "Kd", "setting": "Gemin5 WD40 E197A", "value": "40 ± 5", "unit": "µM"},
      {"measurement": "binding result", "setting": "Gemin5 WD40 Y474A", "value": "binds"}
    ]},
    {"molecule": "AAUUUUUGAG (ssRNA)", "note": "[pre-U4 (118-127) crystal RNA]", "values": [
      {"measurement": "binding result", "setting": "Gemin5 WD40 domain [2]", "value": "binds"}
    ]}
  ]
}
